The record followed here is article PMC12529874.

The target of assay [1] is H2O2-oxidized SOD1(C6A) (Cys111 sulfonylated) (human). Description: not stated; Zn2+-bound SOD1(WT, C6A) before and after oxidation with H2O2; Figure S7, method not given.
Assay [2] deals with apo-SOD1(C6A) (human). Description: SEC-MALS; gel filtration of 20 μM apo protein in MN buffer (100 mM MOPS, 50 mM NaCl, pH 7.0), before or after treatment with 10 mM H2O2, monitored at 280 nm, masses by MALS. (Size exclusion chromatography separates by hydrodynamic size, large species first.)
Assay [3] deals with apo-SOD1(C6A) (human). Description: not stated; Zn2+-bound SOD1(WT, C6A) before and after oxidation with H2O2; Figure S7, method not given.
Assay [4] has as its target apo-SOD1(C6A) (human). Put plainly: native MS; mass spectra of apo-SOD1(C6A) under native conditions, before and after treatment with H2O2; spectra normalized to the 11+ charge state of the dimer.

The term stoichiometry N denotes a count of units in the complex or per binding partner. “H2O2-oxidized SOD1(C6A) (Cys111 sulfonylated) (enzyme)” had a stoichiometry N in assay [1] of 2.

In the case of apo-SOD1(C6A) (enzyme), the stoichiometry N in assay [2], in assay [3] and in assay [4] was 2 throughout.
